Results published in IntAct's records for PubMed 34502139.

B1: Mitochondrial import receptor subunit TOM70 (Homo sapiens), O94826 (parent)
chain: MAASKPVEAAVVAAAVPSSGSGVGGGGTAGPGTGGLPRWQLALAVGAPLLLGAGAIYLWSRQQRRREARGRGDASGLKRNSERKTPEGRASPAPGSGHPEGPGAHLDMNSLDRAQAAKNKGNKYFKAGKYEQAIQCYTEAISLCPTEKNVDLSTFYQNRAAAFEQLQKWKEVAQDCTKAVELNPKYVKALFRRAKAHEKLDNKKECLEDVTAVCILEGFQNQQSMLLADKVLKLLGKEKAKEKYKNREPLMPSPQFIKSYFSSFTDDIISQPMLKGEKSDEDKDKEGEALEVKENSGYLKAKQYMEEENYDKIISECSKEIDAEGKYMAEALLLRATFYLLIGNANAAKPDLDKVISLKEANVKLRANALIKRGSMYMQQQQPLLSTQDFNMAADIDPQNADVYHHRGQLKILLDQVEEAVADFDECIRLRPESALAQAQKCFALYRQAYTGNNSSQIQAAMKGFEEVIKKFPRCAEGYALYAQALTDQQQFGKADEMYDKCIDLEPDNATTYVHKGLLQLQWKQDLDRGLELISKAIEIDNKCDFAYETMGTIEVQRGNMEKAIDMFNKAINLAKSEMEMAHLYSLCDAAHAQTEVAKKYGLKPPTL

Variants of: B1
Conditions: with orf9b_sars2 orf9b

Variant | effect of a mutation on the interaction
E477A | decreasing interaction strength

Variants of: B1
Conditions: with orf9b_sars2 orf9b
Remark: another data set of the same source

Variant | effect of a mutation on the interaction
R192A | decreasing interaction strength
